# Data taken from patent US20250084179A1 (Xencor, published 2025).
# Residue numbers refer to the chain shown, from its start.
# T1: Cyno TROP2 (Macaca fascicularis, UniProt A0A2K5UE71)
# T1 construct: Construct used in the measurement is not described; also called cynomolgus TROP2
# T1 sequence (antigen): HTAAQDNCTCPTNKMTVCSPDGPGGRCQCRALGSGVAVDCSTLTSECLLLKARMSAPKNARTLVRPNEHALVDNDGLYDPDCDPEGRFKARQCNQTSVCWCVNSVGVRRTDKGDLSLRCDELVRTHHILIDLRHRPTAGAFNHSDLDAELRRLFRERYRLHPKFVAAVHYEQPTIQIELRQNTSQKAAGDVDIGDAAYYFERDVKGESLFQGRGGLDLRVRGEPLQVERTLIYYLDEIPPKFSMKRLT
# T2: TROP2 (UniProt P09758 27-274, limits assumed)
# T2 construct: also called tumor-associated calcium signal transducer 2; TACSTD2
# T2 sequence (looked up): T1 sequence (antigen) with V36M, E46K, N67S, V204I
# B1: 1A7_H1.106_IGKV1-39_L1 (Fab, V domains shown)
# VH: EVQLLESGGGLVQPGGSLRLSCAASGFTFSSYYMSWVRQAPGKGLEWVSTISERGDSTYYADSVKGRFTISRDNSKNTLYLQMNSLRAEDTAVYYCAKSGPGLRQVGFDYWGQGTLVTVSS
# VL: not shown
# notes: also called 1A7[CD28]_H1.106 paired with IGKV1-39 germline VL (1F11-1A3.315 L1)
# B2: 1A7_H1.107_IGKV1-39_L1 (Fab, V domains shown)
# VH: B1 VH with R54S, G55S, S57V
# VL: not shown
# notes: also called 1A7[CD28]_H1.107 paired with IGKV1-39 germline VL (1F11-1A3.315 L1)
# B3: 1A7_H1.111_IGKV1-39_L1 (Fab, V domains shown)
# VH: B1 VH with G55S
# VL: not shown
# notes: also called 1A7[CD28]_H1.111 paired with IGKV1-39 germline VL (1F11-1A3.315 L1)
# B4: 1A7_H1.113_IGKV1-39_L1 (Fab, V domains shown)
# VH: B1 VH with G55T
# VL: not shown
# notes: also called 1A7[CD28]_H1.113 paired with IGKV1-39 germline VL (1F11-1A3.315 L1)
# B5: 1F11-1A3.315[Trop2]_H1.1_L1 (antibody, V domains shown)
# VH: QVQLVQSGAEVKKPGASVKVSCKASGYTLTRYYMHWVRQAPGQGLEWMGIINPGGGSTGYAQKFQGRVTMTRDTSTSTVYMELSSLRSEDTAVYYCARDDVVAADVFDYWGQGTLVTVSS
# VL: not shown
# B6: 1F11-1A3.315[Trop2]_H1.2_L1 (antibody, V domains shown)
# VH: B5 VH with L29F, N52E
# VL: not shown
# B7: 1F11-1A3.315[Trop2]_H1.3_L1 (antibody, V domains shown)
# VH: B5 VH with L29F, G59T
# VL: not shown
# B8: 1F11-1A3.315[Trop2]_H1.4_L1 (antibody, V domains shown)
# VH: B5 VH with L29F, V102T
# VL: not shown
# B9: 1F11-1A3.315[Trop2]_H1.5_L1 (antibody, V domains shown)
# VH: B5 VH with L29F, A103K
# VL: not shown
# B10: 1F11-1A3.315[Trop2]_H1.6_L1 (antibody, V domains shown)
# VH: B5 VH with N52E
# VL: not shown
# B11: 1F11-1A3.315[Trop2]_H1.7_L1 (antibody, V domains shown)
# VH: B5 VH with G59T
# VL: not shown
# B12: 1F11-1A3.315[Trop2]_H1.8_L1 (antibody, V domains shown)
# VH: B5 VH with V102T
# VL: not shown
# B13: 1F11-1A3.315[Trop2]_H1.9_L1 (antibody, V domains shown)
# VH: B5 VH with A103K
# VL: not shown
# B14: 1F11-1A3.315[Trop2]_H1.11_L1 (antibody, V domains shown)
# VH: B5 VH with L29F, N52E, V102T
# VL: not shown
# B15: 1F11-1A3.315[Trop2]_H1.12_L1 (antibody, V domains shown)
# VH: B5 VH with L29F, N52E, A103K
# VL: not shown
# B16: 1F11-1A3.315[Trop2]_H1.13_L1 (antibody, V domains shown)
# VH: B5 VH with L29F, G59T, V102T
# VL: not shown
# B17: 1F11-1A3.315[Trop2]_H1.14_L1 (antibody, V domains shown)
# VH: B5 VH with L29F, G59T, A103K
# VL: not shown
# B18: 1F11-1A3.315[Trop2]_H1.15_L1 (antibody, V domains shown)
# VH: B5 VH with L29F, V102T, A103K
# VL: not shown
# B19: 1F11-1A3.315[Trop2]_H1.16_L1 (antibody, V domains shown)
# VH: B5 VH with N52E, V102T
# VL: not shown
# B20: 1F11-1A3.315[Trop2]_H1.17_L1 (antibody, V domains shown)
# VH: B5 VH with N52E, A103K
# VL: not shown
# B21: 1F11-1A3.315[Trop2]_H1.18_L1 (antibody, V domains shown)
# VH: B5 VH with N52E, G59T, V102T
# VL: not shown
# B22: 1F11-1A3.315[Trop2]_H1.20_L1 (antibody, V domains shown)
# VH: B5 VH with N52E, G59S, V102T
# VL: not shown
# B23: 1F11-1A3.315[Trop2]_H1.21_L1 (antibody, V domains shown)
# VH: B5 VH with N52E, G59S, A103K
# VL: not shown
# B24: 1F11-1A3.315[Trop2]_H1.22_L1 (antibody, V domains shown)
# VH: B5 VH with N52E, G59S, V102T, A103K
# VL: not shown
# B25: 1F11-1A3.315[Trop2]_H1.23_L1 (antibody, V domains shown)
# VH: B5 VH with L29F, M34V
# VL: not shown
# B26: 1F11-1A3.315[Trop2]_H1.24_L1 (antibody, V domains shown)
# VH: B5 VH with L29F, G59D
# VL: not shown
# B27: 1F11-1A3.315[Trop2]_H1.25_L1 (antibody, V domains shown)
# VH: B5 VH with L29F, G59L
# VL: not shown
# B28: 1F11-1A3.315[Trop2]_H1.26_L1 (antibody, V domains shown)
# VH: B5 VH with L29F, V102M
# VL: not shown
# B29: 1F11-1A3.315[Trop2]_H1.27_L1 (antibody, V domains shown)
# VH: B5 VH with N52E, G59D, V102T
# VL: not shown
# B30: 1F11-1A3.315[Trop2]_H1.28_L1 (antibody, V domains shown)
# VH: B5 VH with N52E, G59L, V102T
# VL: not shown
# B31: 1F11-1A3.315[Trop2]_H1.29_L1 (antibody, V domains shown)
# VH: B5 VH with M34V, N52E, G59D, V102T
# VL: not shown
# B32: 1F11-1A3.315[Trop2]_H1.30_L1 (antibody, V domains shown)
# VH: B5 VH with M34V, N52E, G59L, V102T
# VL: not shown
# B33: 1F11-1A3.315[Trop2]_H1.31_L1 (antibody, V domains shown)
# VH: B5 VH with M34V, N52E, G59D, A103K
# VL: not shown
# Target: T3, human CD28 (human, UniProt P10747 19-152, limits assumed)
# T3 construct: also called Cluster of Differentiation 28; Tp44
# Assay: Octet, monovalent KD of Fab
row,Binder,Kd
1,B1,43 nM
2,B2,57 nM
3,B3,20 nM
4,B4,29 nM

# Target: T1, Cyno TROP2
# Assay: not stated; bivalent format
Binder,Kd,koff,kon
B5,2.7 nM,0.00073 s⁻¹,270000 M⁻¹ s⁻¹
B6,2.5 nM,0.00067 s⁻¹,270000 M⁻¹ s⁻¹
B7,8.6 nM,0.002 s⁻¹,230000 M⁻¹ s⁻¹
B8,9.4 nM,0.0021 s⁻¹,220000 M⁻¹ s⁻¹
B9,4.5 nM,0.0014 s⁻¹,320000 M⁻¹ s⁻¹
B10,1.5 nM,0.00042 s⁻¹,290000 M⁻¹ s⁻¹
B11,2.8 nM,0.00077 s⁻¹,280000 M⁻¹ s⁻¹
B12,3.1 nM,0.00077 s⁻¹,250000 M⁻¹ s⁻¹
B13,1.4 nM,0.00046 s⁻¹,320000 M⁻¹ s⁻¹
B14,2.6 nM,0.00079 s⁻¹,300000 M⁻¹ s⁻¹
B15,1.1 nM,0.00038 s⁻¹,360000 M⁻¹ s⁻¹
B16,2.8 nM,0.00084 s⁻¹,300000 M⁻¹ s⁻¹
B17,3.7 nM,0.0013 s⁻¹,360000 M⁻¹ s⁻¹
B18,5.1 nM,0.0016 s⁻¹,310000 M⁻¹ s⁻¹
B19,1.5 nM,0.00047 s⁻¹,310000 M⁻¹ s⁻¹
B20,0.81 nM,0.00028 s⁻¹,350000 M⁻¹ s⁻¹
B21,0.93 nM,0.00034 s⁻¹,370000 M⁻¹ s⁻¹
B22,1.7 nM,0.00059 s⁻¹,340000 M⁻¹ s⁻¹
B23,0.81 nM,0.00031 s⁻¹,390000 M⁻¹ s⁻¹
B24,0.7 nM,0.00028 s⁻¹,400000 M⁻¹ s⁻¹
B25,11 nM,0.0026 s⁻¹,230000 M⁻¹ s⁻¹
B26,11 nM,0.0026 s⁻¹,250000 M⁻¹ s⁻¹
B27,14 nM,0.0027 s⁻¹,190000 M⁻¹ s⁻¹
B28,6.2 nM,0.0015 s⁻¹,250000 M⁻¹ s⁻¹
B29,1.2 nM,0.00047 s⁻¹,390000 M⁻¹ s⁻¹
B30,2.1 nM,0.00055 s⁻¹,270000 M⁻¹ s⁻¹
B31,2.1 nM,0.00038 s⁻¹,190000 M⁻¹ s⁻¹
B32,3.7 nM,0.00055 s⁻¹,150000 M⁻¹ s⁻¹
B33,0.48 nM,0.00014 s⁻¹,300000 M⁻¹ s⁻¹

# Target: T2, TROP2
# Assay: not stated; bivalent format
Binder,Kd,koff,kon
B5,2 nM,0.00048 s⁻¹,240000 M⁻¹ s⁻¹
B6,2 nM,0.00047 s⁻¹,250000 M⁻¹ s⁻¹
B7,6 nM,0.0012 s⁻¹,200000 M⁻¹ s⁻¹
B8,6.7 nM,0.0011 s⁻¹,180000 M⁻¹ s⁻¹
B9,3.4 nM,0.00081 s⁻¹,240000 M⁻¹ s⁻¹
B10,0.77 nM,0.00025 s⁻¹,320000 M⁻¹ s⁻¹
B11,1.9 nM,0.00053 s⁻¹,280000 M⁻¹ s⁻¹
B12,2.7 nM,0.0006 s⁻¹,230000 M⁻¹ s⁻¹
B13,1.7 nM,0.0004 s⁻¹,240000 M⁻¹ s⁻¹
B14,1.5 nM,0.00051 s⁻¹,340000 M⁻¹ s⁻¹
B15,1.3 nM,0.00033 s⁻¹,270000 M⁻¹ s⁻¹
B16,1.7 nM,0.00051 s⁻¹,330000 M⁻¹ s⁻¹
B17,2.6 nM,0.00077 s⁻¹,290000 M⁻¹ s⁻¹
B18,4.1 nM,0.00091 s⁻¹,230000 M⁻¹ s⁻¹
B19,1.1 nM,0.00029 s⁻¹,270000 M⁻¹ s⁻¹
B20,0.62 nM,0.00017 s⁻¹,270000 M⁻¹ s⁻¹
B21,0.66 nM,0.0002 s⁻¹,320000 M⁻¹ s⁻¹
B22,1.1 nM,0.00035 s⁻¹,320000 M⁻¹ s⁻¹
B23,1.5 nM,0.00032 s⁻¹,210000 M⁻¹ s⁻¹
B24,0.55 nM,0.00021 s⁻¹,380000 M⁻¹ s⁻¹
B25,7.2 nM,0.0012 s⁻¹,170000 M⁻¹ s⁻¹
B26,5.7 nM,0.0013 s⁻¹,240000 M⁻¹ s⁻¹
B27,8.5 nM,0.0014 s⁻¹,170000 M⁻¹ s⁻¹
B28,4.6 nM,0.00088 s⁻¹,190000 M⁻¹ s⁻¹
B29,0.93 nM,0.00028 s⁻¹,330000 M⁻¹ s⁻¹
B30,1.9 nM,0.00036 s⁻¹,210000 M⁻¹ s⁻¹
B31,2.1 nM,0.00029 s⁻¹,150000 M⁻¹ s⁻¹
B32,2.2 nM,0.00037 s⁻¹,170000 M⁻¹ s⁻¹
B33,0.43 nM,0.00013 s⁻¹,300000 M⁻¹ s⁻¹
